Tested on: Escherichia coli TOP10
Assay: shrunken log2 fold change of peptide-encoding DNA abundance (4.5 h post-induction vs induction); higher = less antimicrobial activity (less host growth inhibition)
Details: time post-induction: 4.5 h; library: site-saturation at positions 5, 18, 19, 20
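Also: peptides expressed intracellularly from a pBAD plasmid library in pooled LB shake-flask culture, induced with 0.3% L-arabinose, DNA abundance read by NGS, three biological replicates, DESeq2 with apeglm shrinkage.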

Row | Sequence | shrunken log2 fold change
1 | RRIRMRPPRLPRPRPRPKKVPRP | 0.561
2 | RRIRGRPPRLPRPRPRPNTLPRP | -0.145
3 | RRIRPRPPRLPRPRPRPKPPPRP | 0.538
4 | RRIRDRPPRLPRPRPRPVATPRP | 0.814
5 | RRIRQRPPRLPRPRPRPSTKPRP | 0.0644
6 | RRIRMRPPRLPRPRPRPWSHPRP | -0.0815
7 | RRIRHRPPRLPRPRPRPSNIPRP | -0.332
8 | RRIRERPPRLPRPRPRPHIMPRP | -0.652
9 | RRIRCRPPRLPRPRPRPMEKPRP | 0.0833
10 | RRIRMRPPRLPRPRPRPLHPPRP | 0.439
11 | RRIRMRPPRLPRPRPRPWEKPRP | 0.217
12 | RRIRARPPRLPRPRPRPKHEPRP | 0.529
13 | RRIRCRPPRLPRPRPRPFAKPRP | -0.108
14 | RRIRIRPPRLPRPRPRPHCQPRP | -0.173
15 | RRIRFRPPRLPRPRPRPHFSPRP | -0.24
16 | RRIRDRPPRLPRPRPRPSQMPRP | 0.0862
17 | RRIRPRPPRLPRPRPRPIKRPRP | -0.125
18 | RRIRPRPPRLPRPRPRPGRFPRP | 0.434
19 | RRIRTRPPRLPRPRPRPFYGPRP | -0.473
20 | RRIRSRPPRLPRPRPRPFMNPRP | -0.147
21 | RRIRRRPPRLPRPRPRPEHSPRP | 0.143
22 | RRIRPRPPRLPRPRPRPEADPRP | 0.0865
23 | RRIRQRPPRLPRPRPRPGPAPRP | 0.114
24 | RRIRTRPPRLPRPRPRPAAVPRP | -0.0116
25 | RRIRVRPPRLPRPRPRPRFFPRP | 0.287

Row | Sequence | shrunken log2 fold change
26 | RRIRVRPPRLPRPRPRPMCNPRP | -0.263
27 | RRIRCRPPRLPRPRPRPQLDPRP | -0.142
28 | RRIRQRPPRLPRPRPRPFVEPRP | -0.152
29 | RRIRVRPPRLPRPRPRPLYAPRP | -0.154
30 | RRIRWRPPRLPRPRPRPQQMPRP | -0.128
31 | RRIRLRPPRLPRPRPRPCWEPRP | -0.197
32 | RRIRKRPPRLPRPRPRPLCVPRP | 0.247
33 | RRIRGRPPRLPRPRPRPVQGPRP | 0.301
34 | RRIRWRPPRLPRPRPRPIRMPRP | 0.098
35 | RRIRDRPPRLPRPRPRPYKCPRP | -0.00925
36 | RRIRCRPPRLPRPRPRPLWVPRP | -0.1
37 | RRIRIRPPRLPRPRPRPPRFPRP | 0.0593
38 | RRIRSRPPRLPRPRPRPVSDPRP | 0.32
39 | RRIRVRPPRLPRPRPRPTIAPRP | 0.335
40 | RRIRGRPPRLPRPRPRPCWPPRP | 0.455
41 | RRIRDRPPRLPRPRPRPTWGPRP | 0.282
42 | RRIRKRPPRLPRPRPRPHYWPRP | -0.047
43 | RRIRIRPPRLPRPRPRPRMLPRP | -0.177
44 | RRIRARPPRLPRPRPRPGKHPRP | 0.089
45 | RRIRSRPPRLPRPRPRPTPFPRP | -0.0055
46 | RRIRARPPRLPRPRPRPAMQPRP | 0.723
47 | RRIRIRPPRLPRPRPRPKWYPRP | -0.22
48 | RRIRCRPPRLPRPRPRPWVDPRP | -0.00886
49 | RRIRVRPPRLPRPRPRPWFQPRP | -0.139
50 | RRIRKRPPRLPRPRPRPEADPRP | 0.00157

Row | Sequence | shrunken log2 fold change
51 | RRIRCRPPRLPRPRPRPDWAPRP | 0.0311
52 | RRIRMRPPRLPRPRPRPCHIPRP | -0.0247
53 | RRIRVRPPRLPRPRPRPWWWPRP | 0.0767
54 | RRIRTRPPRLPRPRPRPDSLPRP | -0.153
55 | RRIRWRPPRLPRPRPRPNSIPRP | -0.396
56 | RRIRDRPPRLPRPRPRPQCPPRP | -0.00693
57 | RRIRERPPRLPRPRPRPWETPRP | 0.11
58 | RRIRYRPPRLPRPRPRPMSHPRP | -0.425
59 | RRIRHRPPRLPRPRPRPSSIPRP | -0.762
60 | RRIRERPPRLPRPRPRPESQPRP | -0.101
61 | RRIRNRPPRLPRPRPRPEIHPRP | 0.116
62 | RRIRFRPPRLPRPRPRPIHIPRP | -0.022
63 | RRIRYRPPRLPRPRPRPNEAPRP | -0.017
64 | RRIRTRPPRLPRPRPRPHLLPRP | -0.411
65 | RRIRRRPPRLPRPRPRPFLVPRP | -0.566
66 | RRIRCRPPRLPRPRPRPWFHPRP | -1.28
67 | RRIRYRPPRLPRPRPRPEYHPRP | -0.0883
68 | RRIRWRPPRLPRPRPRPPNLPRP | -0.24
69 | RRIRDRPPRLPRPRPRPLQGPRP | 0.287
70 | RRIRNRPPRLPRPRPRPKADPRP | -0.0273
71 | RRIRIRPPRLPRPRPRPKLQPRP | 0.173
72 | RRIRMRPPRLPRPRPRPRKRPRP | 3
73 | RRIRVRPPRLPRPRPRPHHGPRP | -0.348
74 | RRIRWRPPRLPRPRPRPVVRPRP | 0.405
75 | RRIRKRPPRLPRPRPRPQKPPRP | 0.00856

Row | Sequence | shrunken log2 fold change
76 | RRIRERPPRLPRPRPRPIPNPRP | -0.135
77 | RRIRRRPPRLPRPRPRPVQSPRP | 0.0557
78 | RRIRKRPPRLPRPRPRPWGHPRP | -0.0374
79 | RRIRGRPPRLPRPRPRPMMYPRP | 0.163
80 | RRIRKRPPRLPRPRPRPSNCPRP | -0.309
81 | RRIRYRPPRLPRPRPRPEVLPRP | -0.00228
82 | RRIRGRPPRLPRPRPRPLHPPRP | 0.697
83 | RRIRMRPPRLPRPRPRPYPGPRP | 0.0814
84 | RRIRIRPPRLPRPRPRPGWIPRP | -0.14
85 | RRIRNRPPRLPRPRPRPHTGPRP | -0.313
86 | RRIRKRPPRLPRPRPRPHSVPRP | 0.11
87 | RRIRPRPPRLPRPRPRPELTPRP | 0.537
88 | RRIRSRPPRLPRPRPRPDWPPRP | 0.149
89 | RRIRPRPPRLPRPRPRPPFKPRP | 0.0437
90 | RRIRWRPPRLPRPRPRPDNPPRP | 0.208
91 | RRIRLRPPRLPRPRPRPEMFPRP | -0.00904
92 | RRIRKRPPRLPRPRPRPQCCPRP | -0.101
93 | RRIRNRPPRLPRPRPRPRGWPRP | 0.962
94 | RRIRSRPPRLPRPRPRPMSNPRP | 0.129
95 | RRIRMRPPRLPRPRPRPNVLPRP | 0.359
96 | RRIRRRPPRLPRPRPRPSAQPRP | 0.234
97 | RRIRYRPPRLPRPRPRPFISPRP | -0.341
98 | RRIRRRPPRLPRPRPRPMARPRP | 0.0728
99 | RRIRERPPRLPRPRPRPYSSPRP | -0.0288
100 | RRIRKRPPRLPRPRPRPMVPPRP | -0.043

Row | Sequence | shrunken log2 fold change
101 | RRIRYRPPRLPRPRPRPWCRPRP | -0.414
102 | RRIRKRPPRLPRPRPRPCLSPRP | -0.161
103 | RRIRYRPPRLPRPRPRPEWIPRP | 0.0106
104 | RRIRWRPPRLPRPRPRPRWFPRP | 0.999
105 | RRIRGRPPRLPRPRPRPTVMPRP | 0.074
106 | RRIRPRPPRLPRPRPRPQHDPRP | -0.176
107 | RRIRGRPPRLPRPRPRPQTKPRP | 0.8
108 | RRIRTRPPRLPRPRPRPRCQPRP | 0.113
109 | RRIRARPPRLPRPRPRPVREPRP | 1.01
110 | RRIRDRPPRLPRPRPRPQKCPRP | 0.0207
111 | RRIRDRPPRLPRPRPRPDGQPRP | 0.705
112 | RRIRGRPPRLPRPRPRPVHVPRP | 0.0798
113 | RRIRIRPPRLPRPRPRPERRPRP | 0.264
114 | RRIRIRPPRLPRPRPRPKKQPRP | -0.194
115 | RRIRRRPPRLPRPRPRPTYIPRP | -0.12
116 | RRIRNRPPRLPRPRPRPPGWPRP | 1.24
117 | RRIRDRPPRLPRPRPRPYEIPRP | -0.0176
118 | RRIRERPPRLPRPRPRPPDAPRP | 0.142
119 | RRIRVRPPRLPRPRPRPQKDPRP | -0.187
120 | RRIRNRPPRLPRPRPRPKNMPRP | -0.189
121 | RRIRKRPPRLPRPRPRPEYMPRP | 0.264
122 | RRIRMRPPRLPRPRPRPNWNPRP | 0.344
123 | RRIRNRPPRLPRPRPRPLKNPRP | -0.234
124 | RRIRARPPRLPRPRPRPAVRPRP | 0.545
125 | RRIRKRPPRLPRPRPRPLSIPRP | -0.0931

Row | Sequence | shrunken log2 fold change
126 | RRIRQRPPRLPRPRPRPIAIPRP | 0.00329
127 | RRIRIRPPRLPRPRPRPFQAPRP | -0.0938
128 | RRIRCRPPRLPRPRPRPSYDPRP | -0.428
129 | RRIRERPPRLPRPRPRPVHYPRP | 0.198
130 | RRIRQRPPRLPRPRPRPRYTPRP | -0.126
131 | RRIRERPPRLPRPRPRPCLPPRP | -0.259
132 | RRIRIRPPRLPRPRPRPTVCPRP | 0.312
133 | RRIRCRPPRLPRPRPRPSPLPRP | 0.21
134 | RRIRPRPPRLPRPRPRPAFHPRP | 0.189
135 | RRIRLRPPRLPRPRPRPHQSPRP | -0.0648
136 | RRIRVRPPRLPRPRPRPGIQPRP | 0.0729
137 | RRIRWRPPRLPRPRPRPITLPRP | 0.107
138 | RRIRIRPPRLPRPRPRPGHNPRP | -0.0704
139 | RRIRWRPPRLPRPRPRPYEMPRP | -0.893
140 | RRIRPRPPRLPRPRPRPTCCPRP | -0.0529
141 | RRIRLRPPRLPRPRPRPRCIPRP | -0.0325
142 | RRIRQRPPRLPRPRPRPENSPRP | -0.0723
143 | RRIRDRPPRLPRPRPRPRAFPRP | -0.2
144 | RRIRDRPPRLPRPRPRPTWHPRP | 0.376
145 | RRIRRRPPRLPRPRPRPSGWPRP | 0.333
146 | RRIRCRPPRLPRPRPRPGAPPRP | 0.734
147 | RRIRCRPPRLPRPRPRPKAFPRP | -0.0921
148 | RRIRFRPPRLPRPRPRPNPWPRP | -0.0447
149 | RRIRERPPRLPRPRPRPCWIPRP | -0.594
150 | RRIRVRPPRLPRPRPRPATDPRP | 0.132

Reference: the supplement of paper PMC9112550, “Optimization of the antimicrobial peptide Bac7 by deep mutational scanning” (BMC Biology, 2022)
